{"source": "patent US20100215653A1", "about": "“METHODS OF TREATING NEOPLASTIC, AUTOIMMUNE AND INFLAMMATORY DISEASES” (Seattle Genetics, Inc., priority 2006, published 2010)", "key": {"CD33 [1]": {"target": "T1, CD33 (Homo sapiens, UniProt P20138)", "T1 sequence (P20138 18-364)": "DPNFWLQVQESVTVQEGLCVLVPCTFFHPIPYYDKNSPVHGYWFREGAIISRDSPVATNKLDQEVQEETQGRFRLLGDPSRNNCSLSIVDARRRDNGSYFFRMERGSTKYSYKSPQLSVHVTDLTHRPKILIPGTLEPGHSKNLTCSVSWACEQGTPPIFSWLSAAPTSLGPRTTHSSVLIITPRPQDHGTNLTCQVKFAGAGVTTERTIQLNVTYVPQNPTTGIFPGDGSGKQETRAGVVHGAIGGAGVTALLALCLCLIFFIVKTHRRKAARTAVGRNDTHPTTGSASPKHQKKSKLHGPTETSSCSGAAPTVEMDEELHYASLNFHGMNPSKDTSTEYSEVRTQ", "experiment": "CD33 tyrosine phosphorylation (CD33 immunoprecipitation, anti-phosphotyrosine Western blot)", "assay_type": "cell-based", "design": "endogenous in cells; host or cells: HL-60, U937; primary human CD14+ monocytes and PBMC-derived macrophages", "experimental": "CD33-positive cell lines were treated with anti-CD33 antibodies (lintuzumab and certain commercially available antibodies). Cell extracts were prepared and CD33 was immunoprecipitated using an anti-CD33 antibody (MY9 clone; Beckman Coulter, Calif.). Western blotting was performed with an anti-phosphotyrosine antibody (4G10; Upstate Biotechnologies, Inc., Lake Placid, N.Y.).\n(§1) Deglycosylation was confirmed by CE-SDS. […] Cell lysates were prepared and CD33 immunoprecipitated using an anti-CD33 rabbit polyclonal antibody (Santa Cruz Biotechnology, Santa Cruz, Calif.) prior to SDS PAGE gel electrophoresis. Western blot analyses of these samples were performed using the 4G10 phosphotyrosine antibody (Upstate Biotechnology, Temucula, Calif.), anti-CD33 antibody (NovoCastra, Norwell, Mass.), and anti-SHP-1 antibody (Calbiochem, San Diego, Calif.). Control lysate for SHP-1 was prepared from a B cell lymphoma cell line."}, "[2]": {"system": "primary human CD14+ monocytes", "experiment": "Cell viability (CelltiterGlo) of primary human CD14+ monocytes", "assay_type": "cell-based", "conditions": "48 hours of exposure to increasing concentrations (FIG. 13)", "description": "Macrophages were harvested, counted, and cultured in 96-well plates at 35,000 cells per well. G-CSF-mobilized CD14^+ monocytes (Cambrex) were cultured in 96-well plates at 100,000 cells per well (adherent cells) in sterile polypropylene dishes (non-adherent cells)."}, "HEL 92.1.7 cells": {"system": "HEL 92.1.7 cells", "experiment": "Complement-dependent cytotoxicity (CDC) activity", "assay_type": "cell-based, human", "conditions": "MDR+, CD33-positive HEL 92.1.7 cells (FIG. 4)", "experimental": "The purpose of this study was to determine whether the cytotoxic effects of an anti-CD33 antibody (HuM195) on AML cells could be enhanced by combination treatment with chemotherapeutic drugs. An MDR^+, CD33-positive AML cell line (HEL 92.1.7) was either untreated or preincubated with the indicated concentrations of thalidomide or 5-azacytidine for two hours prior to exposure to the anti-CD33 Ab. Cytotoxic activity was measured using a complement-dependent cytotoxicity (CDC) activity."}, "[3]": {"system": "primary human macrophages", "experiment": "Cytokine, chemokine and growth factor production by primary human macrophages", "assay_type": "cell-based", "experimental": "Primary human macrophages were generated from long-term cultures of freshly isolated human peripheral blood mononuclear cells (PBMCs; AllCells, Emeryville, Calif. or LifeBlood, Memphis, Tenn.). PBMCs were cultured in tissue culture flasks in RPMI 1640 medium containing glutamine (Invitrogen, Grand Island, N.Y.), 10% heat-inactivated FBS, and antibiotics for 3 to 4 hours. Non-adherent cells were removed by washing with PBS and the adherent cells were cultured in OptiMem-I medium (Invitrogen) containing 1% heat-inactivated FBS for 1 to 2 hours. The cells were washed with PBS and cultured for 10 to 14 days in X-VIVO-15 medium (Cambrex Bio Science, Walkersville, Md.) containing 500 U/ml GM-CSF (Peprotech, Rocky Hill, N.J.).\nTissue culture media was harvested 18 h later for cytokine analyses by ELISA or Searchlight (Pierce Endogen, Rockville, Ill.)."}, "CD33 [4]": {"target": "T1, CD33", "experiment": "Recruitment of SHP-1 / SHP-2 / Syk to CD33 (CD33 immunoprecipitation, Western blot)", "assay_type": "cell-based", "design": "endogenous in cells; host or cells: HL-60, U937; primary human CD14+ monocytes and PBMC-derived macrophages", "experimental": "To determine whether the humanized M195 antibody also recruits SHP phosphatases, HL-60 cells were treated with soluble or cross-linked anti-CD33 antibodies. Cell extracts were prepared and CD33 was immunoprecipitated with an anti-CD33 antibody (MY9 clone). Western blotting was performed with an anti-SHP-1 antibody (sc-287; Santa Cruz Biotechnology, Inc., Santa Cruz, Calif.).\nas §1, with “To prepare deglycosylated SGN-33, the antibody was treated with PN-glycosidase F (New England BioLabs, Ipswich, Mass.). Deglycosylation” for “Deglycosylation”"}, "[5]": {"system": "AML tumor cells (KG-1 HEL9217, and TF1α)", "experiment": "ADCC, 51Cr release assay with NK effector cells", "assay_type": "cell-based, human", "conditions": "MDR-positive and MDR-negative AML cells; effector to target ratio 10:1 (FIG. 27A)", "experimental": "Target AML tumor cells (KG-1 HEL9217, and TF1α) were labeled with Na^51CrO4 and mixed with enriched CD16^+ effector (NK) cells, prepared using PBMCs from normal donors. The effector to target cell ratio was 10:1. […] Macrophages were labeled with CD11b−FITC or CD14-FITC antibody. Flow cytometric analyses of dual labeled (PKH67+CD11b+ or PKH67+CD14+) cells was used to determine specific uptake (phagocytosis). […] Media were collected 18 h later and analyzed by ELISA for IL-8 or MCP-1.\nViable NK cells were pre-treated for 2 to 3 h with lenalidomide or thalidomide (as described in FIG. 23) prior to addition to target cells."}}, "note": "Entries after “also recorded” stand apart in the source; their conditions may differ.", "data": [{"substance": "SGN-33: anti-CD33 antibody, a humanized version of mouse monoclonal antibody M195", "values": [{"measurement": "phosphorylation of CD33", "setting": "CD33 [1]; HL-60 AML cells (FIG. 16)", "value": "induced phosphorylation of CD33"}, {"measurement": "CD33 tyrosine phosphorylation", "setting": "CD33 [1]; HL-60 and U937 cells, soluble or cross-linked antibody (FIG. 2)", "value": "stimulated CD33 tyrosine phosphorylation"}, {"measurement": "CD33 tyrosine phosphorylation", "setting": "CD33 [1]; HL-60 cells, soluble and cross-linked antibody (FIG. 1)", "value": "stimulated CD33 tyrosine phosphorylation"}, {"measurement": "cell viability of monocytes", "setting": "[2]", "value": "not due to an adverse effect; also recorded: does not affect the viability"}, {"measurement": "lysis of AML cells (CDC)", "setting": "HEL 92.1.7 cells", "value": "increased lysis of AML cell lines in a dose-dependent manner"}, {"measurement": "production of IL-6, TNF-α, RANTES and MCP-1", "setting": "[3]; macrophages pre-incubated 3 hours with SGN-33, response to IFN-γ or conditioned media from RPMI-8226 and Karpus-620 cells, 24 h", "value": "reduced production of IL-6, TNF-α, RANTES, and MCP-1"}, {"measurement": "levels of TNF-α", "setting": "[3]; primary human macrophages, various doses 1 hr before IFN-γ, 18 h, p<0.05 (FIG. 20)", "value": "significantly reduced levels of TNF-α in a dose-dependent manner"}, {"measurement": "recruitment of SHP-1 to the CD33 complex", "setting": "CD33 [4]; HL-60 and monocytes, 30 minutes (FIG. 16)", "value": "resulted in recruitment of SHP-1 to the CD33 complex"}, {"measurement": "recruitment of SHP-2 or Syk", "setting": "CD33 [4]; HL-60 cells, data not shown", "value": "did not recruit SHP-2 or Syk"}, {"measurement": "ADCC activity (cell lysis)", "setting": "[5]", "value": "mediated antibody-dependent cell cytotoxity; also recorded: mediate cell lysis of MDR− and MDR+AML tumor cell lines"}]}]}
